In patent US20200002403A1 (UNIVERSITY COURT OF THE UNIVERSITY OF ABERDEEN, published 2020):

Target: T1, mouse ICOSL (mouse, UniProt Q9JHJ8 47-279, limits assumed)
T1 construct: Target of ELSS1 panning; also called mICOSL
T1 sequence (looked up): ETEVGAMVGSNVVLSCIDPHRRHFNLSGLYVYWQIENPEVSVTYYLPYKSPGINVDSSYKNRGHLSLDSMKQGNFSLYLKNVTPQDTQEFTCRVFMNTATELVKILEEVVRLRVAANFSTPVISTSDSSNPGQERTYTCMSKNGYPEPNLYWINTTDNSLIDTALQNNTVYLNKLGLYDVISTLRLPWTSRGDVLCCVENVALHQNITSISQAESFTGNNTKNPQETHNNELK
Test: lead clones against targets used to screen ELSS1; alignment legend

| Binder | binding result |
| --- | --- |
| SEQ ID NO 41 (VNAR, VNAR) VNAR: ASVNQTPRTATKETGESLTINCVLTDTGYGWFATSWFRKNPGTTDWERMSIGGRYVESVNKGAKSFSLRIKDLTVADSATYICRADMWPKNTKYSPDVYGAGTVLTVN | binds |
| SEQ ID NO 42 (VNAR, VNAR) VNAR: TRVDQTPRTATKETGESLTINCVLTDTEYGLFSTSWFRKNPGTTDWERMSIGGRYVESVNKGAKSFSLRIKDLTVADSATYYCKALGWWPPAFPHWYDGAGTVLTVN | binds |

More lines, now with the values ahead:

| binding result | Binder |
| --- | --- |
| binds | SEQ ID NO 45 (VNAR, VNAR) VNAR: TRVDQTPRTATKETGESLTINCVLTDTGYGLFSTSWFRKNPGTTDWERMSIGGRYVESVNKGAKSFSLRIKDLTVADSATYYCKALGWIPPEFPHWYDGAGTVLTVN |
| binds | SEQ ID NO 43 (VNAR, VNAR) VNAR: TRVDQTPRTATKETGESLTINCVLTDTRYALYSTSWFRKNPGTTDWERMSIGGRYVESVNKGAKSFSLRIKDLTVADSATYICRANEMMPPMDVYGAGTVLTVN |
| binds | SEQ ID NO 44 (VNAR, VNAR) VNAR: TRVDQTPRTATKETGESLTINCVLTDTSYGWFSTSWFRKNPGTTDWERMSIGGRYVESVNKGAKSFSLRIKDLTVADSATYICRAQAAIPDFPRYVYGAGTVLTVN |
